Measurements reported in paper PMC3839042.

Tests used:
human S100B (human) = human S100B (human) (UniProt P04271); assay: ITC
human S100A2 (human) = human S100A2 (human) (UniProt P29034); assay: ITC
human S100A2 (human), sequence (P29034 whole entry): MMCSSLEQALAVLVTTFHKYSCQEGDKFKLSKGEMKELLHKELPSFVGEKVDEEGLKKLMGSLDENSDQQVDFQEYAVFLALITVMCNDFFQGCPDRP

human S100B (human), sequence (P04271 whole entry): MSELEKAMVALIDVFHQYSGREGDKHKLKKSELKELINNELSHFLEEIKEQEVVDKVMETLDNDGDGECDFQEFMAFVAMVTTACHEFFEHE

- stoichiometry N (peptides per S100B dimer) (human S100B (human)): 2
- stoichiometry N (peptides per S100A2 dimer) (human S100A2 (human)): 2
Substance: TRTK12 wild-type peptide (Ac-…-NH2)
